# Laboratory results taken from US20220056137A1 (GIGAGEN, published 2022).
# Where a chain is given by its changes, count along the chain named.
# B1: antibody A18 (antibody, V domains shown)
# VH: QVQLVESGGGVVQPGRSLRLSCAASGFTFSSFALHWVRQAPGKGLEWVAVLWYDGISKYYADSVKGRFTISRDNSKNTLYLQMNSLRAEDTAVYYCARDVVGVHDAFDIWGQGTMVTVSS
# VL: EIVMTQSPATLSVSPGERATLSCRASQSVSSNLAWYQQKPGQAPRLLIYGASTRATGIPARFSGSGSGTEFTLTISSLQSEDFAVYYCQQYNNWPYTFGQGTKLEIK
# notes: also called L18H18
# B2: antibody A11 (antibody, V domains shown)
# VH: QVQLVESGGGVVQPGRSLRLSCAASGFTFSSYGIHWVRQAPGKGLEWVAVIWSDGSNKFYADSVKGRFTISRDNSKNTLFLQMSSLRAEDTAVYYCARDIAAAIDYWGQGTLVTVSS
# VL: AIQMTQSPSSLSASVGDRVTITCRASQGIRNDLGWYQQKPGKAPKLLIYAASSLQSGVPSRFSGSGSGTDFTLTISSLQPEDFATYYCLQDYNYPYTFGQGTKLEIK
# notes: Tested as full-length mAb made in CHO cells; also called L11H11
# B3: antibody A12 (antibody, V domains shown)
# VH: QVQLVESGGGVVQPGRSLRLSCAASGFTFSSYGMHWVRQAPGKGLEWVAVIWYDGSNKSYADSVKGRFTFSRDNSKNTLYLQMNSLRAEDTAVYYCARDMDYFGLDVWGQGTTVTVSS
# VL: B2 VL with A1D, L46R, D70E, D91H, Y92N, N93S, Y96R, L104V
# notes: Tested as full-length mAb made in CHO cells; also called L12H12
# B4: antibody A15 (antibody, V domains shown)
# VH: QLQLQESGPGLVKPSETLSLTCTVSGGSFNRSNYYWGWIRQPPGKGLEWIGSIYYSGSTYYNPSLKSRLTISADTSKTQFSLKRNSVTAADTAVYYCAREDIVVVPAAQPPHFYFGMDVWGQGTTVTVSS
# VL: B2 VL with A1D, L46R, D70E, D91H, Y92D, N93S, Y96L, Q100G, L104V
# notes: Tested as full-length mAb made in CHO cells; also called L15H15
# B5: antibody A17 (antibody, V domains shown)
# VH: QVQLQESGPGLVKPSETLSLTCTVSGGSISGYSWSWIRQPPGKGLEWIGYIYYSGSTNNNPSLKSRVTISVDTSKNQFSLKLSSVTAADTAVYFCARDDGIAVAGYYFYYGLDVWGQGTTVTVSS
# VL: B2 VL with A1D, L46R, D70E, D91H, Y92N, N93T, Y96W, L104V
# notes: Tested as full-length mAb made in CHO cells; also called L17H17
# B6: antibody A16 (antibody, V domains shown)
# VH: B3 VH with S59Y, F70I, K76N, N77D, Y80F, M100F, Y102W, L105M
# VL: B2 VL with A1D, L46R, D70E, D91H, Y92N, N93S, Y96R, L104V
# notes: Tested as full-length mAb made in CHO cells; also called L16H16
# B7: antibody A20 (antibody, V domains shown)
# VH: B5 VH with G31S, S33Y, N59Y, F94Y, G100R, A104G, G105P, F108Y, L112M
# VL: B2 VL with A1D, L46R, D70E, D91H, Y92N, N93S
# notes: Tested as full-length mAb made in CHO cells; also called L20H20
# B8: antibody A10 (antibody, V domains shown)
# VH: QVQLVESGGGVVQPGRSLRLSCAASGFTFSSYGMHWVRQAPGKGLEWVAVIWYDGINKYYADSVKGRFTISRDNSKNTLYLQMNSLRAEDTAVYYCARDSTASPFDYWGQGTLVTVSS
# VL: EIVMTQSPATLSLSPGERATLSCRASQSVSSSYLSWYQQKPGQAPRLLIYGASTRATGIPARFSGSGSGTDFTLTISSLQPEDFAVYYCQQDYNLPHTFGQGTKLEIK
# notes: Tested as full-length mAb made in CHO cells; also called L10H10
# B9: antibody A6 (antibody, V domains shown)
# VH: B8 VH with Y53F, I56S, S100K, A102V, Y107I, L113M
# VL: EIVMTQSPATLSLSPGERATLSCRASQSVSSSYLSWYQQKPGQAPRLLIYGASTRATGIPARFSGSGSGTDFTLTISSLQPEDFAVYYCQQDYNLFTFGPGTKVDIK
# notes: Tested as full-length mAb made in CHO cells; also called L6H6
# B10: antibody A9 (antibody, V domains shown)
# VH: B8 VH with Y53F, I56N, S100V, A102T, S103V
# VL: B8 VL with I49M, H97Y
# notes: Tested as full-length mAb made in CHO cells; also called L9H9
# B11: antibody A14 (antibody, V domains shown)
# VH: B8 VH with I56S, N57V, S100R, A102G, S103V
# VL: B8 VL
# notes: Tested as full-length mAb made in CHO cells; also called L14H14
# B12: antibody A19 (antibody, V domains shown)
# VH: QVQLVESGGGVVQPGRSLRLSCVASGFTFSSYGMHWVRQAPGKGLEWVAVIWYDGSNKFYIDSVKGRFTISRDNSKNTLYLQMNSLRAEDTAVYYCARGGAVAGTSWYYYYGMDVWGQGTTVTVSS
# VL: DIQLTQSPSFLSASVGDRVTITCRASQGISSYLAWYQQKPGKAPKLLIYDASTLQSGVPSRFSGSGSGTEFTLTISSLQPEDFAIYYCQQLNTYPLTFGGGTKVEIK
# notes: Tested as full-length mAb made in CHO cells; also called L19H19
# B13: antibody A21 (antibody, V domains shown)
# VH: B12 VH with V23A, I61E, A101V, V102N, A103W, G104N, T105D, S106V, W107G
# VL: B12 VL with S9P, D50A, I85T, T93S, L96F, G100Q, V104L
# notes: Tested as full-length mAb made in CHO cells; also called L21H21
# B14: antibody A23 (antibody, V domains shown)
# VH: QVQLVQSGAEVKKPGASVKVSCKASGYTFTNYGISWVRQAPGQGLEWMGWISAYNGNTNYEQKVQGRVTMTTDTSTSTAYMELRSLRSDDTAVYYCARSLTGLFDYWGQGTLVTVSS
# VL: DIQMTQSPSSLSASVGDRVTITCRASQGIRNDLGWYQQKPGKAPKRLIYAASSLQSGVPSRFSGSGSGTEFTLTISSLQPEDFATYYCLQHNSYPMFTFGQGTKLEIK
# Target: T1, human PD-L1 protein (soluble) (human, UniProt Q9NZQ7 19-239)
# T1 construct: also called PD-L1 (R&D Systems); His-tagged PD-L1 protein
# Assay: SPR, mAb captured on anti-human IgG Fc, PD-L1 as analyte;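 on koff: array SPR with mAb supernatants captured at several densities, PD-L1 injected for 5 min then 15 min dissociation, non-regenerative kinetic series, double-referenced against interspot surface and blank injection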;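 on kon: array SPR with mAb supernatants captured at several densities, PD-L1 injected for 5 min then 15 min dissociation, non-regenerative kinetic series, double-referenced against interspot surface and blank injection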
# Description: (§1) The surface was then deactivated with 1 M ethanolamine pH 8.5 (Carterra Inc.). Running buffer used for the lawn immobilization was HBS-EPC (10 mM HEPES, 150 mM NaCl, 3 mM EDTA, 0.05% Tween 20, pH 7.4; Teknova).
# (§2) The sensor chip was then transferred to a continuous flow microspotter (CFM; Carterra Inc.) for array capturing. The mAb supernatants were diluted 50-fold (3-10 mg/mL final concentration) into HBS-EPC with 1 mg/mL BSA. The samples were each captured twice with 15-minute and 4-minute capture steps on the first and second prints, respectively, to create multiple densities, using a 65 mL/min flow rate. The running buffer in the CFM was also HBS-EPC.
# (§3) Next, the sensor chip was loaded onto an SPR reader (MX-96 system; Ibis Technologies) for the kinetic analysis. […] PD-L1 injections were 5 minutes with a 15-minute dissociation at 8 mL/second in a non-regenerative kinetic series. An injection of the goat anti-Human IgG Fc capture antibody at 75 mg/mL was injected at the end of the series to verify the capture level of each mAb. Binding data was double referenced by subtracting an interspot surface and a blank injection and analyzed for ka (on-rate), kd (off-rate), and KD (affinity) using the Kinetic Interaction Tool software (Carterra Inc.).
# T1 sequence (Q9NZQ7 19-239 limits assumed): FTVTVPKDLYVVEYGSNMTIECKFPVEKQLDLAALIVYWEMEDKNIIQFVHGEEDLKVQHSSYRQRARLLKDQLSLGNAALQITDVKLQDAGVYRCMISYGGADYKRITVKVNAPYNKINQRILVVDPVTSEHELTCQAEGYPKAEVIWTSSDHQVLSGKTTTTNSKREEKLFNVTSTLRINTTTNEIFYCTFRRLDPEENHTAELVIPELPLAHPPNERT
Binder,Kd [nM],koff [s⁻¹],kon [M⁻¹ s⁻¹]
B1,438,0.035,80000
B2,64.7,0.011,170000
B3,81.3,0.013,160000
B4,227,0.022,97000
B5,335,0.077,230000
B6,250,0.035,140000
B7,688,0.11,160000
B8,40.9,0.018,440000
B9,15.8,0.0049,310000
B10,26.2,0.0055,210000
B11,146,0.038,260000
B12,565,0.0035,6200
B13,867,0.013,15000

# Target: T2, rhPD-L1-Fc (human, UniProt Q9NZQ7 19-239, limits assumed)
# T2 construct: Recombinant human PD-L1-Fc coated on ELISA plates; not shown: Fc part
# Assay: competition ELISA: plate-bound rhPD-L1-Fc, antibody titrated, competitor rhCD80-His detected
# T2 sequence (Q9NZQ7 19-239 limits assumed): as above
row,Binder,EC50 [µg/mL]
1,B2,0.56
2,B6,0.64
3,B8,2.24
4,B9,2.62
5,B10,1.49
6,B11,0.6

# Target: T3, cyno PD-L1 (cyno)
# T3 construct: Soluble analyte in BLI
# Assay: BLI (Octet), antibody on AHC biosensor, cyno PD-L1 as analyte
# Description: For BLI, antibodies were loaded onto an Anti-Human IgG Fc (AHC) biosensor using the Octet Red96 system (ForteBio). Loaded biosensors were dipped into antigen dilutions beginning at 300 nM, with 6 serial dilutions at 1:3. Kinetic analysis was performed using a 1:1 binding model and global fitting.
row,Binder,Kd [nM]
1,B2,17.7
2,B3,75.9
3,B5,762
4,B6,532
5,B8,27.4
6,B10,20.9
7,B11,57.7

# Target: PD-L1 expressed on CHO cells (human, UniProt Q9NZQ7 19-290)
# Assay: cell-based or functional assay
# Sequence of PD-L1 expressed on CHO cells (Q9NZQ7 19-290 limits assumed): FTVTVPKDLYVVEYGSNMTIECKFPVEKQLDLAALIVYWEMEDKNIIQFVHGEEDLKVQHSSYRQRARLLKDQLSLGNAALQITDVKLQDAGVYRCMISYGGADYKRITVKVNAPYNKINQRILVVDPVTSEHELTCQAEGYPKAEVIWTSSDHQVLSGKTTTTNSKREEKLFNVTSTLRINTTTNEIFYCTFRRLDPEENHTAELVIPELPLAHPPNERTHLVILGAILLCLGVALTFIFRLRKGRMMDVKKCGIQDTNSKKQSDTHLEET
row,Binder,"Promega assay antagonist (EC50, ug/mL) [µg/mL]"
1,B1,0.088
2,B2,0.158
3,B3,3.13
4,B4,0.55
5,B5,2.25
6,B14,9.8
7,B8,0.27
8,B9,0.111
9,B10,0.28
10,B11,1.23

# Target: T1, human PD-L1 protein (soluble)
# Assay: SPR, mAb captured on anti-human IgG Fc, PD-L1 as analyte;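 on koff: array SPR with mAb supernatants captured at several densities, PD-L1 injected for 5 min then 15 min dissociation, non-regenerative kinetic series, double-referenced against interspot surface and blank injection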;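 on kon: array SPR with mAb supernatants captured at several densities, PD-L1 injected for 5 min then 15 min dissociation, non-regenerative kinetic series, double-referenced against interspot surface and blank injection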
# Remark: another data set of the same source
# Description: as §1, §2, §3
row,Binder,Kd [nM]
1,B1,442
2,B2,66
3,B3,80
4,B4,227
5,B5,335
6,B6,246
7,B7,675
8,B8,42
9,B9,16
10,B10,26
11,B11,148
12,B12,567
13,B13,860
